Test results taken from patent EP2402371A1 (SANOFI, dated 2012).

Columns and labels:
hGPVI-hFc fusion protein [1] = target: T1, hGPVI-hFc fusion protein (human); assay: competition assay, GPVI-Fc pre-incubated with Fab, binding to collagen-coated plates (DELFIA), Test 3
T1 construct: also called GPVI-Fc fusion protein; human GPVI-Fc

hGPVI-hFc fusion protein [2] = target: T1, hGPVI-hFc fusion protein; assay: competition assay, GPVI-Fc pre-incubated with Fab, binding to collagen-coated plates (DELFIA), Test 1
[3] = target: T2, human GPVI on the platelet surface (human, UniProt Q9HCN6 21-339); assay: cell-based or functional assay
T2 sequence (looked up): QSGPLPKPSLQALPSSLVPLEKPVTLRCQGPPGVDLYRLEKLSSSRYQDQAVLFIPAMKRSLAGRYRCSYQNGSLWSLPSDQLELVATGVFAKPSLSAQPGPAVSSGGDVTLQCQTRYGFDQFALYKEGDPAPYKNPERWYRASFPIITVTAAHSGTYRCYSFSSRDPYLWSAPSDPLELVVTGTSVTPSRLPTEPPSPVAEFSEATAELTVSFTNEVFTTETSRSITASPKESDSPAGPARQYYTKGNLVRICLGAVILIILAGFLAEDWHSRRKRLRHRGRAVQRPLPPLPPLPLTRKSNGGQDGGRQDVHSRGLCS

hGPVI-hFc fusion protein [4] = target: T1, hGPVI-hFc fusion protein; assay: competition assay, GPVI-Fc pre-incubated with Fab, binding to collagen-coated plates (DELFIA), Test 2

B1: non-humanized Fab construct based on the original clone 390 without the His-tag (Fab, V domains shown)
VH: QVQLKESGPGLVAPSQSLSITCTVSGFSLTGYGVNWVRQPPGKGLEWLGMIWGDGSTDYNSTLKSRLSISKDNSKSQVFLKMNSLQTDDTARYYCARDLPMDYWGQGTSVTVSS
VL: DIQMTQSPSSLSASLGGKVTITCKASQDINKYIAWYQHKPGKGPSLLIHYTSTLQPGIPSRFSGSGSGRDYSFSISNLEPEDIATYYCLQYANLLTFGGGTKLEIKR
hGPVI-hFc fusion protein [1]
  IC50: 0.99 µg/mL
hGPVI-hFc fusion protein [2]
  IC50: 0.49 µg/mL
[3]
  IC50 for inhibition of collagen induced platelet aggregation (human platelet rich plasma), Test 1: 1.6 µg/mL
  IC50 for inhibition of collagen induced platelet aggregation (human platelet rich plasma), Test 2: 6.4 µg/mL
  IC50 for inhibition of collagen induced platelet aggregation (human platelet rich plasma), Test 3: 1.3 µg/mL
hGPVI-hFc fusion protein [4]
  IC50: 0.56 µg/mL

B2: humanized anti-GPVI Fab VL1/VH2 (Fab, V domains shown)
VH: QVQLQESGPGLVAPSQSLSITCTVSGFSLTGYGVNWVRQPPSRGLEWLGMIWGDGSTDYQSTLKSRLSISKDNSKSQVFLKMNSLTTDDTARYYCARDLPMDYWGQGTSVTVSS
VL: DIQMTQSPSSLSASVGGRVTITCKASQDINKYIAWYQHKPGKGPSLLIHYTSTLQPGVPSRFSGSGSGRDYSFSISNLQPEDIATYYCLQYANLLTFGGGTKLEIKR
[3]
  IC50 for inhibition of collagen induced platelet aggregation (human platelet rich plasma), Test 1: 2.3 µg/mL
  IC50 for inhibition of collagen induced platelet aggregation (human platelet rich plasma), Test 2: 2 µg/mL
  IC50 for inhibition of collagen induced platelet aggregation (human platelet rich plasma), Test 3: 1.1 µg/mL

B3: humanized anti-GPVI Fab VL1/VH1 (Fab, V domains shown)
VH: QVQLQESGPGLVAPSQSLSITCTVSGFSLTGYGVNWVRQPPSRGLEWLGMIWGDGSTDYQSTLKSRLSISKDTSKSQVFLKMNSLTTDDTARYYCARDLPMDYWGQGTSVTVSS
VL: DIQMTQSPSSLSASVGGRVTITCKASQDINKYIAWYQHKPGKGPSLLIHYTSTLQPGVPSRFSGSGSGRDYSFSISNLQPEDIATYYCLQYANLLTFGGGTKLEIKR
[3]
  IC50 for inhibition of collagen induced platelet aggregation (human platelet rich plasma), Test 1: 1.5 µg/mL
  IC50 for inhibition of collagen induced platelet aggregation (human platelet rich plasma), Test 2: 2.3 µg/mL

B4: humanized anti-GPVI Fab VL1/VH3 (Fab, V domains shown)
VH: EVQLLESGPGLVAPSGSLSITCTVSGFSLTGYGVNWVRQPPGKGLEWLGMIWGDGSTDYQSTLKSRLSISKDNSKSQVFLKMNSLRTDDTARYYCARDLPMDYWGLGTSVTVSS
VL: DIQMTQSPSSLSASVGGRVTITCKASQDINKYIAWYQHKPGKGPSLLIHYTSTLQPGVPSRFSGSGSGRDYSFSISNLQPEDIATYYCLQYANLLTFGGGTKLEIKR
[3]
  IC50 for inhibition of collagen induced platelet aggregation (human platelet rich plasma), Test 1: 1.7 µg/mL
  IC50 for inhibition of collagen induced platelet aggregation (human platelet rich plasma), Test 2: 1.5 µg/mL
  IC50 for inhibition of collagen induced platelet aggregation (human platelet rich plasma), Test 3: 1.5 µg/mL

B5: humanized anti-GPVI Fab VL1/VH4 (Fab, V domains shown)
VH: QVQLQESGPGLVAPSQSLSITCTVSGFSLTYYGVNWVRQPPSRGLEWLGMIWGDGSTDYQSTLKSRLSISKDNSKSQVFLKMNSLTTDDTARYYCARDLPMDYWGQGTSVTVSS
VL: DIQMTQSPSSLSASVGGRVTITCKASQDINKYIAWYQHKPGKGPSLLIHYTSTLQPGVPSRFSGSGSGRDYSFSISNLQPEDIATYYCLQYANLLTFGGGTKLEIKR
[3]
  IC50 for inhibition of collagen induced platelet aggregation (human platelet rich plasma), Test 1: 1.6 µg/mL
  IC50 for inhibition of collagen induced platelet aggregation (human platelet rich plasma), Test 2: 1.8 µg/mL
  IC50 for inhibition of collagen induced platelet aggregation (human platelet rich plasma), Test 3: 1.2 µg/mL

B6: humanized anti-GPVI Fab VL1/VH5 (Fab, V domains shown)
VH: QVQLQESGPGLVAPSQSLSITCTVSGFSLTGYGVNWVRQPPSRGLEWLGMIWGDGSTDYQSTLKSRLSISKDNSKSQVFLKMNSLTTDDTARYYCARDLPMDEWGQGTSVTVSS
VL: DIQMTQSPSSLSASVGGRVTITCKASQDINKYIAWYQHKPGKGPSLLIHYTSTLQPGVPSRFSGSGSGRDYSFSISNLQPEDIATYYCLQYANLLTFGGGTKLEIKR
[3]
  IC50 for inhibition of collagen induced platelet aggregation (human platelet rich plasma), Test 1: 1.9 µg/mL
  IC50 for inhibition of collagen induced platelet aggregation (human platelet rich plasma), Test 2: 2.3 µg/mL
  IC50 for inhibition of collagen induced platelet aggregation (human platelet rich plasma), Test 3: 1.2 µg/mL

B7: humanized anti-GPVI Fab VL2/VH2 (Fab, V domains shown)
VH: QVQLQESGPGLVAPSQSLSITCTVSGFSLTGYGVNWVRQPPSRGLEWLGMIWGDGSTDYQSTLKSRLSISKDNSKSQVFLKMNSLTTDDTARYYCARDLPMDYWGQGTSVTVSS
VL: DIQMTQSPSSLSASVGGRVTITCKASQDINKYIAWYQHKPGKGPSLLIHYTSTLQPGVPSRFSGSGSGRDYSFSISNLQPEDIATYYCLQYAHLLTFGGGTKLEIKR
[3]
  IC50 for inhibition of collagen induced platelet aggregation (human platelet rich plasma), Test 1: 1.4 µg/mL
  IC50 for inhibition of collagen induced platelet aggregation (human platelet rich plasma), Test 2: 2.4 µg/mL
  IC50 for inhibition of collagen induced platelet aggregation (human platelet rich plasma), Test 3: 2.3 µg/mL

B8: humanized anti-GPVI Fab VL3/VH2 (Fab, V domains shown)
VH: QVQLQESGPGLVAPSQSLSITCTVSGFSLTGYGVNWVRQPPSRGLEWLGMIWGDGSTDYQSTLKSRLSISKDNSKSQVFLKMNSLTTDDTARYYCARDLPMDYWGQGTSVTVSS
VL: DIQMTQSPSSLSASVGGRVTITCKASQDINKYIAWYQHKPGKGPSLLIHYTSTLQPGVPSRFSGSGSGRDYSFSISNLQPEDIATYYCLQYALLLTFGGGTKLEIKR
[3]
  IC50 for inhibition of collagen induced platelet aggregation (human platelet rich plasma), Test 1: 1.9 µg/mL
  IC50 for inhibition of collagen induced platelet aggregation (human platelet rich plasma), Test 2: 0.9 µg/mL
  IC50 for inhibition of collagen induced platelet aggregation (human platelet rich plasma), Test 3: 2.1 µg/mL

B9: humanized anti-GPVI Fab VL3/VH4 (Fab, V domains shown)
VH: QVQLQESGPGLVAPSQSLSITCTVSGFSLTYYGVNWVRQPPSRGLEWLGMIWGDGSTDYQSTLKSRLSISKDNSKSQVFLKMNSLTTDDTARYYCARDLPMDYWGQGTSVTVSS
VL: DIQMTQSPSSLSASVGGRVTITCKASQDINKYIAWYQHKPGKGPSLLIHYTSTLQPGVPSRFSGSGSGRDYSFSISNLQPEDIATYYCLQYALLLTFGGGTKLEIKR
[3]
  IC50 for inhibition of collagen induced platelet aggregation (human platelet rich plasma), Test 1: 1 µg/mL
  IC50 for inhibition of collagen induced platelet aggregation (human platelet rich plasma), Test 2: 2.3 µg/mL
  IC50 for inhibition of collagen induced platelet aggregation (human platelet rich plasma), Test 3: 2 µg/mL
